Reference: article PMC8026774 (Cellular and molecular neurobiology, 2020)
Where no end group is shown, it is not given here.

How the values were obtained:
MOR-1 (untagged) = MOR-1 (untagged) (mouse, UniProt P42866 1-398); assay: radioligand binding
MOR-1-PK [1] = biological target: T1, MOR-1-PK (mouse, UniProt P42866 1-398); assay: radioligand binding
MOR-TR-PK = MOR-TR-PK (mouse); assay: cell-based or functional assay
MOR-1-PK [2] = biological target: T1, MOR-1-PK; assay: cell-based or functional assay
MOR-1A-PK = MOR-1A-PK (mouse); assay: cell-based or functional assay
MOR-1B1-PK = MOR-1B1-PK (mouse); assay: cell-based or functional assay
MOR-1E-PK = MOR-1E-PK (mouse); assay: cell-based or functional assay
Chain of MOR-1E-PK (mouse) (P42866 whole entry): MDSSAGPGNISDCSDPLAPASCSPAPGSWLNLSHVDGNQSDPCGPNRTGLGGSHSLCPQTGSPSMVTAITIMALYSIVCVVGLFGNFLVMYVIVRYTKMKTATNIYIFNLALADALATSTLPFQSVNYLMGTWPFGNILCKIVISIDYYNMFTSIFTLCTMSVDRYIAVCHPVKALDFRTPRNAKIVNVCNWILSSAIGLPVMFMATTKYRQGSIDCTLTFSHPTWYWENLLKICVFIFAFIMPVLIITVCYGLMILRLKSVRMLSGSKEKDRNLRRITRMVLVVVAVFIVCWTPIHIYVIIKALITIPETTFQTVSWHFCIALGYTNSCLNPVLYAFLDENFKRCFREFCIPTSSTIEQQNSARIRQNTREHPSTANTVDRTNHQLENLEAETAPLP

T1 sequence (P42866 whole entry): as above
Chain of MOR-TR-PK (mouse) (P42866 whole entry): as above
Chain of MOR-1 (untagged) (P42866 whole entry): as above
Chain of MOR-1A-PK (mouse) (P42866 whole entry): as above
Chain of MOR-1B1-PK (mouse) (P42866 whole entry): as above

B1: β-endorphin (peptide)
peptide: YGGFMTSEKSQTPLVTLFKNAIIKNAYKKGE
modifications: not fully specified
Ki (MOR-1 (untagged)): 6.22 nM | Ki (MOR-1-PK [1]): 10.4 nM | [35S]GTPγS binding (G-protein activation), EC50 (MOR-TR-PK): 691 nM | [35S]GTPγS binding (G-protein activation), EC50 (MOR-1-PK [2]): 118 nM | [35S]GTPγS binding (G-protein activation), EC50 (MOR-1A-PK): 112 nM | [35S]GTPγS binding (G-protein activation), EC50 (MOR-1B1-PK): 141 nM | [35S]GTPγS binding (G-protein activation), EC50 (MOR-1E-PK): 23 nM
